Reference: the supplement of paper PMC9112550, “Optimization of the antimicrobial peptide Bac7 by deep mutational scanning” (BMC Biology, 2022)

System: Escherichia coli TOP10
Experiment: shrunken log2 fold change of peptide-encoding DNA abundance (4.5 h post-induction vs induction); higher = less antimicrobial activity (less host growth inhibition)
Details: time post-induction: 4.5 h; library: site-saturation at positions 5, 18, 19, 20
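Also: peptides expressed intracellularly from a pBAD plasmid library in pooled LB shake-flask culture, induced with 0.3% L-arabinose, DNA abundance read by NGS, three biological replicates, DESeq2 with apeglm shrinkage.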

Sequence | shrunken log2 fold change
RRIRFRPPRLPRPRPRPHWIPRP | -0.151
RRIRFRPPRLPRPRPRPHWKPRP | -0.162
RRIRFRPPRLPRPRPRPIAEPRP | 0.2
RRIRFRPPRLPRPRPRPIAPPRP | 0.0659
RRIRFRPPRLPRPRPRPICGPRP | 0.0198
RRIRFRPPRLPRPRPRPICMPRP | -0.214
RRIRFRPPRLPRPRPRPIDAPRP | -0.289
RRIRFRPPRLPRPRPRPIEDPRP | -0.461
RRIRFRPPRLPRPRPRPIFMPRP | -0.314
RRIRFRPPRLPRPRPRPIFVPRP | 0.108
RRIRFRPPRLPRPRPRPIGDPRP | -0.033
RRIRFRPPRLPRPRPRPIHFPRP | -0.246
RRIRFRPPRLPRPRPRPIHHPRP | -0.0432
RRIRFRPPRLPRPRPRPIIDPRP | -1.61
RRIRFRPPRLPRPRPRPIIEPRP | -0.747
RRIRFRPPRLPRPRPRPIKAPRP | -0.128
RRIRFRPPRLPRPRPRPILWPRP | -0.0429
RRIRFRPPRLPRPRPRPINLPRP | -0.291
RRIRFRPPRLPRPRPRPINMPRP | -0.319
RRIRFRPPRLPRPRPRPINVPRP | -0.195
RRIRFRPPRLPRPRPRPIPHPRP | -0.31
RRIRFRPPRLPRPRPRPIQWPRP | 0.0986
RRIRFRPPRLPRPRPRPISKPRP | -0.0939
RRIRFRPPRLPRPRPRPISVPRP | 0.0197
RRIRFRPPRLPRPRPRPIVVPRP | -0.0214

Sequence | shrunken log2 fold change
RRIRFRPPRLPRPRPRPIVYPRP | -0.181
RRIRFRPPRLPRPRPRPIWHPRP | -0.0746
RRIRFRPPRLPRPRPRPIWRPRP | 0.248
RRIRFRPPRLPRPRPRPIYGPRP | -0.289
RRIRFRPPRLPRPRPRPIYIPRP | -0.832
RRIRFRPPRLPRPRPRPIYKPRP | -0.836
RRIRFRPPRLPRPRPRPIYTPRP | -0.424
RRIRFRPPRLPRPRPRPKAAPRP | 0.264
RRIRFRPPRLPRPRPRPKEPPRP | -0.135
RRIRFRPPRLPRPRPRPKIPPRP | -0.428
RRIRFRPPRLPRPRPRPKIQPRP | -0.179
RRIRFRPPRLPRPRPRPKIWPRP | 0.106
RRIRFRPPRLPRPRPRPKKAPRP | 0.173
RRIRFRPPRLPRPRPRPKLIPRP | -0.565
RRIRFRPPRLPRPRPRPKLNPRP | -0.193
RRIRFRPPRLPRPRPRPKNLPRP | -0.225
RRIRFRPPRLPRPRPRPKNTPRP | -0.487
RRIRFRPPRLPRPRPRPKRVPRP | 0.598
RRIRFRPPRLPRPRPRPKTDPRP | -0.0282
RRIRFRPPRLPRPRPRPKTGPRP | 0.072
RRIRFRPPRLPRPRPRPKTHPRP | -0.0208
RRIRFRPPRLPRPRPRPKWQPRP | 0.000886
RRIRFRPPRLPRPRPRPKYLPRP | -0.451
RRIRFRPPRLPRPRPRPLAIPRP | -0.0726
RRIRFRPPRLPRPRPRPLAKPRP | 0.182

Sequence | shrunken log2 fold change
RRIRFRPPRLPRPRPRPLCMPRP | -0.888
RRIRFRPPRLPRPRPRPLEMPRP | -0.357
RRIRFRPPRLPRPRPRPLEPPRP | -0.199
RRIRFRPPRLPRPRPRPLEWPRP | 0.0696
RRIRFRPPRLPRPRPRPLFMPRP | -0.36
RRIRFRPPRLPRPRPRPLFYPRP | -0.0429
RRIRFRPPRLPRPRPRPLGQPRP | -0.187
RRIRFRPPRLPRPRPRPLIEPRP | -0.132
RRIRFRPPRLPRPRPRPLIRPRP | -0.382
RRIRFRPPRLPRPRPRPLKLPRP | -0.147
RRIRFRPPRLPRPRPRPLLAPRP | 0.176
RRIRFRPPRLPRPRPRPLLDPRP | -0.0563
RRIRFRPPRLPRPRPRPLPQPRP | 1.15
RRIRFRPPRLPRPRPRPLPVPRP | 0.142
RRIRFRPPRLPRPRPRPLRIPRP | 0.00235
RRIRFRPPRLPRPRPRPLRLPRP | 0.891
RRIRFRPPRLPRPRPRPLRRPRP | 0.773
RRIRFRPPRLPRPRPRPLSTPRP | -0.47
RRIRFRPPRLPRPRPRPLTLPRP | -0.337
RRIRFRPPRLPRPRPRPLTPPRP | 0.0478
RRIRFRPPRLPRPRPRPLVCPRP | -0.365
RRIRFRPPRLPRPRPRPLVDPRP | 0.0316
RRIRFRPPRLPRPRPRPLVMPRP | -0.335
RRIRFRPPRLPRPRPRPLWPPRP | 0.264
RRIRFRPPRLPRPRPRPLYDPRP | -0.358
